Experimental data published in patent US20110217237A1 (AbbVie / Abbott, published 2011).

Tests used:
[1] = target: T1, human DLL4 extracellular domain (human, UniProt Q9NR61 27-529); assay: SPR (Biacore)
T1 construct: purified recombinant ECD; biotin-labelled or 6xHis-tagged depending on the assay; also called huDLL4 ECD; hu DLL4 ECD
Experimental: Binding of DLL4 antibodies to a purified recombinant DLL4 extracellular domain (ECD) was determined by surface plasmon resonance-based measurements with a Biacore® instrument (either a Biacore 2000, Biacore 3000, or Biacore T100; GE Healthcare, Piscataway, N.J., US) using running buffer HBS-EPB (10 mM HEPES [pH 7.4], 150 mM NaCl, 3 mM EDTA, 0.1 mg/ml BSA and 0.005% surfactant P20) at 25° C. For example, approximately 9000 RU of goat anti-human Fc specific polyclonal antibody (Thermo Fisher Scientific Inc., Rockford, Ill., US) diluted in 10 mM sodium acetate (pH 4.5) is directly immobilized across a CMS research grade biosensor chip using a standard amine coupling kit according to manufacturer's instructions and procedures at 25 μg/ml. Unreacted moieties on the biosensor surface were blocked with ethanolamine. For kinetic analysis, rate equations derived from the 1:1 Langmuir binding model were fitted simultaneously to multiple antigen injections (using global fit analysis) with the use of Scrubber 2 (BioLogic Software), Biacore Biaevaluation 4.0.1 software or Biacore T100 Evaluation software. Purified antibodies were diluted in running buffer for capture across goat anti-human Fc reaction surfaces. Antibodies to be captured as a ligand (1 μg/ml) were injected over reaction matrices at a flow rate of 10 μl/min. During the assay, all measurements were referenced against the capture surface alone (i.e., with no captured anti-DLL4 antibody). […] The equilibrium dissociation constant KD (M) of the reaction between antibodies and the target antigen was then calculated from the kinetic rate constants by the following formula: KD=Koff/Kₒₙ. Binding was recorded as a function of time and kinetic rate constants were calculated. In this assay, on-rates as fast as 10⁶ M⁻¹s⁻¹ and off-rates as slow as 10⁻⁶ s⁻¹ could be measured.
The good binder variants, as determined by binding ELISA, were assessed by Biacore (Example 1.1) concurrently with cell based assay screens.

[2] = target: T2, human DLL4, full length, on cells (human, UniProt Q9NR61 27-685); assay: FACS, DLL4 cells
T2 construct: also called huDLL4 cells; human DLL4-293G
Experimental: Stable cell lines overexpressing cell-surface DLL4 were harvested from tissue culture flasks, washed four times and resuspended in phosphate buffered saline (PBS) containing 1% bovine serum albumin and 1 mM CaCl₂ (FACS buffer). 1.5×10⁵ cells were incubated with antibodies at various concentrations in FACS buffer for 60 minutes on ice. […] Following an incubation on ice (4° C., 60 minutes), cells were washed three times and resuspended in FACS buffer. Fluorescence was measured using a Becton Dickinson FACSCalibur-HTS (Becton Dickinson, San Jose, Calif., US). Data were analyzed using Graphpad Prism software and EC₅₀ values were reported as the concentration of antibody to achieve 50% of maximal DLL4 antibodies binding to DLL4 expressing cells.
The good binder variants, as determined by binding ELISA, were assessed by Biacore (Example 1.1) concurrently with cell based assay screens. The KD for human DLL4 was similar for all variants (see, Biacore, KD in Table 18, below).

[3] = target: T2, human DLL4, full length, on cells; assay: cell-based or functional assay
[4] = target: T1, human DLL4 extracellular domain; assay: competition ELISA vs Notch-1 Fc
Experimental: Plates were then washed 3 times with wash buffer (PBS, 0.05% Tween-20) and blocked with 200 μl/well blocking buffer (D-PBS, 1% BSA, 1 mM CaCl₂, 0.05% Tween-20) for 1 hour at 25° C. While blocking, biotin labeled DLL4 extracellular domain (14 nM) was mixed with antibody (30 pM-66 nM, 3-fold serial dilution in blocking buffer) for 1 hour at 25° C. with shaking. Assay plates were washed after blocking, and incubated with DLL4/antibody mixtures (100 μl/well, 1 hour at 25° C. with shaking). Plates were washed again and 100 μl/well streptavidin conjugated with HRP (Fitzgerald #65R-S104PHRPx, diluted 1:5,000 in blocking buffer) was added for 1 hour at 25° C. with shaking. After a final wash, plates were developed using 100 μl/well substrate (TMB Sigma #T8665), and the reaction was stopped using 100 μl/well 1N HCl, and the absorbance was read at 450 nm. Data were analyzed using Graphpad Prism software and IC₅₀ values were reported as the concentration of antibody to achieve 50% reduction of DLL4 bound to Notch1.
Purified variants were further characterized in human Notch-1 competition ELISAs (Example 1.4), which used a format of plating Notch-1 Fc onto ELISA plates and pre-incubating biotinylated human DLL4 plus titrated antibody. Signal was assessed by free biotinylated DLL4 binding to Notch-1 Fc.

[5] = target: T1, human DLL4 extracellular domain; assay: capture ELISA, biotin-huDLL4 ECD

T2 sequence (Q9NR61 27-685 limits assumed): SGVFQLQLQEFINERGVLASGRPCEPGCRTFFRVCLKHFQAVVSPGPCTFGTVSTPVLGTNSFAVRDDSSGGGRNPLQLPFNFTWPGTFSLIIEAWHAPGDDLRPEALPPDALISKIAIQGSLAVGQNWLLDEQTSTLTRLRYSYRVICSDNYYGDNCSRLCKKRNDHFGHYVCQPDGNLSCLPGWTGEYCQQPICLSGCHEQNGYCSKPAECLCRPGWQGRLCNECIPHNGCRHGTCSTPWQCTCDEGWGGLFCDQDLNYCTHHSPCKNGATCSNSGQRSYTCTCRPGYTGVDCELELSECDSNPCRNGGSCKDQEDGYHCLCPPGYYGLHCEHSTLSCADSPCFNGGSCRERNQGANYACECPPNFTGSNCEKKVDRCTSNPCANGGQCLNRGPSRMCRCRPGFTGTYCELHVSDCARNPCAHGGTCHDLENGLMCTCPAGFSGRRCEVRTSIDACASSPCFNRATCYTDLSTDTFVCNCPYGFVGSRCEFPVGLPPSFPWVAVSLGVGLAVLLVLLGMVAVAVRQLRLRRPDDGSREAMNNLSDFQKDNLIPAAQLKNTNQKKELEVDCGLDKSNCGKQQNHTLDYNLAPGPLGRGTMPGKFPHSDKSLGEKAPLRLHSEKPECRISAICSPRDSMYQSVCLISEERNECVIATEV
T1 sequence (Q9NR61 27-529 limits assumed): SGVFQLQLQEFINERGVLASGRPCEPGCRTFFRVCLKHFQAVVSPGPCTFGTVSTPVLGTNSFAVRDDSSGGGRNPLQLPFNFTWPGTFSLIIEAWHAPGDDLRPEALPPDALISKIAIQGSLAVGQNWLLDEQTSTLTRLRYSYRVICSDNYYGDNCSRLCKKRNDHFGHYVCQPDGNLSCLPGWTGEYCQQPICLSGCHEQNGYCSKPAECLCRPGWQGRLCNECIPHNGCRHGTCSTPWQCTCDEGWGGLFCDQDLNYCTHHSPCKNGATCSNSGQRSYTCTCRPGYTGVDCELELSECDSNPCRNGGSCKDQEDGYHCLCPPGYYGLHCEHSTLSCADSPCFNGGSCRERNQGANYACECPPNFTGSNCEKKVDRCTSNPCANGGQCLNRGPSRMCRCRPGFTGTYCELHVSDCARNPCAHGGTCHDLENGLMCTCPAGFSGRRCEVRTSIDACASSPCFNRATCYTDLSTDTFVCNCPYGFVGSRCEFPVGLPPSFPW

Binder	Kd [1]	EC50 [2]	Notch Reporter Assay EC50 [3]	EC50 [4]	EC50 [5]
h38H12.11 (antibody, V domains shown, humanized IgG; also called VH.1b/VL.1b 38H12) VH: EVQLVESGGGVVQPGRSLRLSCAASGFTFSNYGMYWVRQAPGKGLEWVAFISHGGGITYYRDSVKGRFTISRDNSKNTLYLQMNSLRAEDTAVYYCAALNWELGIDYWGQGTMVTVSS VL: DIQMTQSPSSLSASVGDRVTITCRASEDIYSNLAWYQQKPGKAPKLLIYAANRLQDGVPSRFSGSGSGTDYTLTISSLQPEDFATYYCLQGSKFPLTFGQGTKLEIKR	0.554 nM	2.48 nM	0.657 nM	3.8 nM	0.126 nM
h38H12.7 (antibody, V domains shown, humanized IgG; also called VH.1a/VL.1b 38H12) VH: EVQLVESGGGVVQPGRSLRLSCAASGFTFSNYGMYWIRQAPGKGLEWVAFISHGGGITYYRDSVKGRFTISRDNSKSTLYLQMNSLRAEDTAVYHCAALNWELGIDYWGQGTMVTVSS VL: DIQMTQSPSSLSASVGDRVTITCRASEDIYSNLAWYQQKPGKAPKLLIYAANRLQDGVPSRFSGSGSGTDYTLTISSLQPEDFATYYCLQGSKFPLTFGQGTKLEIKR	0.34 nM	19.1 nM	2.6 nM	12.5 nM	0.18 nM
h38H12.12 (antibody, V domains shown, humanized IgG; also called VH.1b/VL.2a 38H12) VH: EVQLVESGGGVVQPGRSLRLSCAASGFTFSNYGMYWVRQAPGKGLEWVAFISHGGGITYYRDSVKGRFTISRDNSKNTLYLQMNSLRAEDTAVYYCAALNWELGIDYWGQGTMVTVSS VL: EIVMTQSPATLSVSPGERATLSCRASEDIYSNLAWYQKKPGQSPRLLIYAANRLQDGVPARFSGSGSGTEYTLTISSLQSEDFAVYFCLQGSKFPLTFGQGTKLEIKR	0.819 nM	1.48 nM	1.06 nM	3.23 nM	0.165 nM
h38H12.5 (antibody, V domains shown, humanized IgG; also called VH.1a/VL.1 38H12) VH: EVQLVESGGGVVQPGRSLRLSCAASGFTFSNYGMYWIRQAPGKGLEWVAFISHGGGITYYRDSVKGRFTISRDNSKSTLYLQMNSLRAEDTAVYHCAALNWELGIDYWGQGTMVTVSS VL: DIQMTQSPSSLSASVGDRVTITCRASEDIYSNLAWYQQKPGKAPKLLIYAANRLQDGVPSRFSGSGSGTDFTLTISSLQPEDFATYYCLQGSKFPLTFGQGTKLEIKR	0.401 nM	77.2 nM	7.31 nM	14.8 nM	0.202 nM
h38H12.8 (antibody, V domains shown, humanized IgG; also called VH.1a/VL.2a 38H12) VH: EVQLVESGGGVVQPGRSLRLSCAASGFTFSNYGMYWIRQAPGKGLEWVAFISHGGGITYYRDSVKGRFTISRDNSKSTLYLQMNSLRAEDTAVYHCAALNWELGIDYWGQGTMVTVSS VL: EIVMTQSPATLSVSPGERATLSCRASEDIYSNLAWYQKKPGQSPRLLIYAANRLQDGVPARFSGSGSGTEYTLTISSLQSEDFAVYFCLQGSKFPLTFGQGTKLEIKR	0.397 nM	20 nM	5.56 nM	8.31 nM	0.197 nM
h38H12.16 (antibody, V domains shown, humanized IgG; also called VH.2a/VL.2a 38H12) VH: EVQLVESGGGLVQPGGSLRLSCAASGFTFSNYGMYWIRQAPGKGLEWVAFISHGGGITYYRDSVKGRFTISRDNSKSTLYLQMNSLRAEDTAVYHCAALNWELGIDYWGQGTMVTVSS VL: EIVMTQSPATLSVSPGERATLSCRASEDIYSNLAWYQKKPGQSPRLLIYAANRLQDGVPARFSGSGSGTEYTLTISSLQSEDFAVYFCLQGSKFPLTFGQGTKLEIKR	0.392 nM	2.91 nM	1.19 nM	3.77 nM	0.17 nM
h38H12.9 (antibody, V domains shown, humanized IgG; also called VH.1b/VL.1 38H12) VH: EVQLVESGGGVVQPGRSLRLSCAASGFTFSNYGMYWVRQAPGKGLEWVAFISHGGGITYYRDSVKGRFTISRDNSKNTLYLQMNSLRAEDTAVYYCAALNWELGIDYWGQGTMVTVSS VL: DIQMTQSPSSLSASVGDRVTITCRASEDIYSNLAWYQQKPGKAPKLLIYAANRLQDGVPSRFSGSGSGTDFTLTISSLQPEDFATYYCLQGSKFPLTFGQGTKLEIKR	0.986 nM	3.71 nM	1.44 nM	4.16 nM	0.116 nM
h38H12.6 (antibody, V domains shown, humanized IgG; also called VH.1a/VL.1a 38H12) VH: EVQLVESGGGVVQPGRSLRLSCAASGFTFSNYGMYWIRQAPGKGLEWVAFISHGGGITYYRDSVKGRFTISRDNSKSTLYLQMNSLRAEDTAVYHCAALNWELGIDYWGQGTMVTVSS VL: DIQMTQSPSSLSASVGDRVTITCRASEDIYSNLAWYQKKPGKSPKLLIYAANRLQDGVPSRFSGSGSGTDYTLTISSLQPEDFATYFCLQGSKFPLTFGQGTKLEIKR	0.434 nM	12.3 nM	6.32 nM	27 nM	0.158 nM
h38H12.13 (antibody, V domains shown, humanized IgG; also called VH.2a/VL.1 38H12) VH: EVQLVESGGGLVQPGGSLRLSCAASGFTFSNYGMYWIRQAPGKGLEWVAFISHGGGITYYRDSVKGRFTISRDNSKSTLYLQMNSLRAEDTAVYHCAALNWELGIDYWGQGTMVTVSS VL: DIQMTQSPSSLSASVGDRVTITCRASEDIYSNLAWYQQKPGKAPKLLIYAANRLQDGVPSRFSGSGSGTDFTLTISSLQPEDFATYYCLQGSKFPLTFGQGTKLEIKR	0.507 nM	2.56 nM	0.794 nM	5.29 nM	0.153 nM
h38H12.10 (antibody, V domains shown, humanized IgG; also called VH.1b/VL.1a 38H12) VH: EVQLVESGGGVVQPGRSLRLSCAASGFTFSNYGMYWVRQAPGKGLEWVAFISHGGGITYYRDSVKGRFTISRDNSKNTLYLQMNSLRAEDTAVYYCAALNWELGIDYWGQGTMVTVSS VL: DIQMTQSPSSLSASVGDRVTITCRASEDIYSNLAWYQKKPGKSPKLLIYAANRLQDGVPSRFSGSGSGTDYTLTISSLQPEDFATYFCLQGSKFPLTFGQGTKLEIKR	0.578 nM	2.49 nM	0.786 nM	3.9 nM	0.123 nM
h38H12.15 (antibody, V domains shown, humanized IgG; also called VH.2a/VL.1b 38H12) VH: EVQLVESGGGLVQPGGSLRLSCAASGFTFSNYGMYWIRQAPGKGLEWVAFISHGGGITYYRDSVKGRFTISRDNSKSTLYLQMNSLRAEDTAVYHCAALNWELGIDYWGQGTMVTVSS VL: DIQMTQSPSSLSASVGDRVTITCRASEDIYSNLAWYQQKPGKAPKLLIYAANRLQDGVPSRFSGSGSGTDYTLTISSLQPEDFATYYCLQGSKFPLTFGQGTKLEIKR	0.355 nM	2.37 nM	0.837 nM	5.71 nM	0.0904 nM
h38H12.14 (antibody, V domains shown, humanized IgG; also called VH.2a/VL.1a 38H12) VH: EVQLVESGGGLVQPGGSLRLSCAASGFTFSNYGMYWIRQAPGKGLEWVAFISHGGGITYYRDSVKGRFTISRDNSKSTLYLQMNSLRAEDTAVYHCAALNWELGIDYWGQGTMVTVSS VL: DIQMTQSPSSLSASVGDRVTITCRASEDIYSNLAWYQKKPGKSPKLLIYAANRLQDGVPSRFSGSGSGTDYTLTISSLQPEDFATYFCLQGSKFPLTFGQGTKLEIKR	0.303 nM	1.04 nM	1.01 nM	5.84 nM	0.146 nM
